Experimental data reported in the supplement of paper PMC9233669.
Fewer inactive variants are shown than the library holds.

Tests used:
[1] = tested on: biotinyl-Trp-oxazolone; experiment: self-aminoacylation, catalytic enhancement (BWO) (fold over background); higher = more active; k-Seq, kA / k0A0; sequences stand for … in GGGAAUGGAUCCACAUCUACGAAUUC…UUCACUGCAGACUUGACGAAGCUG
Procedure, shortened: (§1)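 Mutagenized RNA pools with a 21-nt variable region (0.43 μM) were reacted with each biotinyl-aminoacyl-oxazolone at 2–1250 μM for 90 minutes at room temperature, in 50 μL HEPES/NaCl/KCl/MgCl2/CaCl2 buffer containing 5% acetonitrile at pH 6.9–7.0. RNA captured on streptavidin was quantified by triplicate qPCR and by Illumina sequencing. The fraction reacted for each sequence was fit to a pseudo-first-order model with bootstrapping, and catalytic enhancement is the median kA divided by the uncatalyzed rate, taken as the low-activity peak of a bimodal Gaussian fit.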

[2] = tested on: biotinyl-Val-oxazolone; experiment: self-aminoacylation, catalytic enhancement (BVO) (fold over background); higher = more active; k-Seq, kA / k0A0; sequences stand for … in GGGAAUGGAUCCACAUCUACGAAUUC…UUCACUGCAGACUUGACGAAGCUG
Procedure, shortened: as §1

[3] = tested on: biotinyl-Leu-oxazolone; experiment: self-aminoacylation, catalytic enhancement (BLO) (fold over background); higher = more active; k-Seq, kA / k0A0; sequences stand for … in GGGAAUGGAUCCACAUCUACGAAUUC…UUCACUGCAGACUUGACGAAGCUG
Procedure, shortened: as §1

[4] = tested on: biotinyl-Ile-oxazolone; experiment: self-aminoacylation, catalytic enhancement (BIO) (fold over background); higher = more active; k-Seq, kA / k0A0; sequences stand for … in GGGAAUGGAUCCACAUCUACGAAUUC…UUCACUGCAGACUUGACGAAGCUG
Procedure, shortened: as §1

[5] = tested on: biotinyl-Phe-oxazolone; experiment: self-aminoacylation, catalytic enhancement (BFO) (fold over background); higher = more active; k-Seq, kA / k0A0; sequences stand for … in GGGAAUGGAUCCACAUCUACGAAUUC…UUCACUGCAGACUUGACGAAGCUG
Procedure, shortened: as §1

[6] = tested on: biotinyl-Met-oxazolone; experiment: self-aminoacylation, catalytic enhancement (BMO) (fold over background); higher = more active; k-Seq, kA / k0A0; sequences stand for … in GGGAAUGGAUCCACAUCUACGAAUUC…UUCACUGCAGACUUGACGAAGCUG
Procedure, shortened: as §1

Sequence	self-aminoacylation [1]	self-aminoacylation [2]	self-aminoacylation [3]	self-aminoacylation [4]	self-aminoacylation [5]	self-aminoacylation [6]
CAACACUUCAAGGAAUCGGUC [Fam1B.1 aminoacylation ribozyme variant]	3.1	1.03	0.95	1.47	3.28	1.07
CUACUUGAAACAAUCGGUAUG [Fam1A.1 aminoacylation ribozyme variant]	0.504	0.699	0.838	0.654	0.5	0.67
AUUCACCUCGGUCCUCGGGUG [Fam2.2 aminoacylation ribozyme variant]	7.07	4.23	7.19	4.17	53.2	6.33
CUACUUCAAACUAUCUGUCUG [Fam1A.1 aminoacylation ribozyme variant]	0.738	0.867	0.767	0.869	1.09	0.846
AUUCACCUACGUUAUCGGGUG [Fam2.2 aminoacylation ribozyme variant]	6.51	4.17	9.22	3.98	63.3	7.55
AUUCACCUAGGUUACCGGGUG [Fam2.2 aminoacylation ribozyme variant]	3.78	2.63	3.98	2.49	18.5	3.68
GUUACCCUGGUAAUCGAGUGA [Fam2.1 aminoacylation ribozyme variant]	13.9	4.77	10.5	4.93	58.5	10.7
AUAACCCUGGUCAUCGGGUGA [Fam2.1 aminoacylation ribozyme variant]	35.3	13.4	35.6	12.1	183	31.3
CCACACUUCAAGGCAUCGGUC [Fam1B.1 aminoacylation ribozyme variant]	1.16	1.32	1.18	1.03	1.18	1.02
AAGUUUGCGAAUAGUCGGAAG [Fam3.1 aminoacylation ribozyme variant]	2.32	0.964	1.1	0.977	0.764	1.38
CUACUUCAACCAAUCGCUCUG [Fam1A.1 aminoacylation ribozyme variant]	1.43	0.729	0.843	0.872	1.4	0.806
CAACUUCAAACAAUCGGUGUG [Fam1A.1 aminoacylation ribozyme variant]	16.5	1.7	2.53	1.92	27.3	2.15
AUUACCCUGGGCAGCGAGUGA [Fam2.1 aminoacylation ribozyme variant]	9.57	5.64	8.78	5.87	34.6	9.21
CUUACCCUGGUCAGCGAGUGA [Fam2.1 aminoacylation ribozyme variant]	7.19	3.69	6.11	3.42	29.2	4.38
CCCCACUUCAAGCAUUCGGUC [Fam1B.1 aminoacylation ribozyme variant]	5.46	3.06	2.48	2.65	10.9	2.61
CCACACUUCAAGCAAUCCGUU [Fam1B.1 aminoacylation ribozyme variant]	1.45	1.27	1.27	1.4	0.872	1.31
AUUACCCUGGUUAUGGAGUGA [Fam2.1 aminoacylation ribozyme variant]	8.01	3.93	7.9	3.95	47.4	7.77
AUGUUUGCUAAUAGUCCCAAG [Fam3.1 aminoacylation ribozyme variant]	1.25	1.11	0.966	1.08	2.79	0.965
AUUCACCUAGGUCGUCGGGGG [Fam2.2 aminoacylation ribozyme variant]	3.53	2.9	3.38	3.11	8.18	3.07
CCGCACUUCAAGCAACCGGUC [Fam1B.1 aminoacylation ribozyme variant]	1.56	1.54	1.1	1.47	1.29	1.47
CUACUUGAAAAAAUCGGUCUG [Fam1A.1 aminoacylation ribozyme variant]	0.84	0.822	0.801	0.862	0.472	0.781
AUUACCAUGGACAUCGAGUGA [Fam2.1 aminoacylation ribozyme variant]	8.17	3.14	6.81	2.91	24.1	6.51
AUUCAACUAGGUCAUCAGGUG [Fam2.2 aminoacylation ribozyme variant]	1.33	1.22	1.54	1.28	1.43	1.29
CUACUUCAAACAAUCGGUUAG [Fam1A.1 aminoacylation ribozyme variant]	1.46	0.614	0.493	0.706	2.89	0.591
CCACACUUCAGGCAAUGGGUC [Fam1B.1 aminoacylation ribozyme variant]	0.952	0.722	0.702	0.733	0.992	0.802
CUACUUCAAAGACUCGGUCUG [Fam1A.1 aminoacylation ribozyme variant]	1.35	1.2	1.01	1.12	3.52	1.16

Sequence	self-aminoacylation [1]	self-aminoacylation [2]	self-aminoacylation [3]	self-aminoacylation [4]	self-aminoacylation [5]	self-aminoacylation [6]
AUGACCCUGGUCAUCGAGUGA [Fam2.1 aminoacylation ribozyme variant]	51.6	19.3	55.8	18.6	451	58.9
CCACACUUAAAGCUAUCGGUC [Fam1B.1 aminoacylation ribozyme variant]	0.89	1.1	0.915	1.03	0.762	0.887
CUACGUCAAACAAUCGGUAUG [Fam1A.1 aminoacylation ribozyme variant]	1.53	1.12	1.11	1.12	1.02	1.39
AUUACCCUGGACAACGAGUGA [Fam2.1 aminoacylation ribozyme variant]	9.2	3.76	8.43	3.88	59.1	8.65
CUGCUUCAAACAAUCGGACUG [Fam1A.1 aminoacylation ribozyme variant]	28.3	1.21	1.79	1.13	49.5	1.26
AUUACCCCGGUCAUCGAGUCA [Fam2.1 aminoacylation ribozyme variant]	0.734	0.988	1.06	1.24	1.3	0.928
CCACACUUCAAGCAAUCGAAC [Fam1B.1 aminoacylation ribozyme variant]	0.578	0.76	0.41	0.557	0.953	0.402
AUUCACCUAGGUCAUCCUGUG [Fam2.2 aminoacylation ribozyme variant]	0.316	0.885	1.04	1.13	1.42	0.923
AAGUUUGCUAAUGAUCGCAAG [Fam3.1 aminoacylation ribozyme variant]	0.749	0.603	0.52	0.697	0.952	0.488
AUUCCCCUGGUCAUCGACUGA [Fam2.1 aminoacylation ribozyme variant]	1.41	1.64	1.25	1.54	1.59	1.23
AUGCACCUAGGUCAUCGGAUG [Fam2.2 aminoacylation ribozyme variant]	1.25	1.23	1.11	1.26	0.614	0.919
CUACAUCAAACAAUCGGUCAG [Fam1A.1 aminoacylation ribozyme variant]	0.586	0.714	0.56	0.629	0.912	0.759
CCACACUACAAGCAAUCGGCC [Fam1B.1 aminoacylation ribozyme variant]	1.78	2.06	1.57	2.44	1.99	2.7
AUUACCCUGGAGAUCGAGUGA [Fam2.1 aminoacylation ribozyme variant]	8.06	3.79	7.42	3.59	28.9	6.7
CCACACUUCAAGCAAUGGUUC [Fam1B.1 aminoacylation ribozyme variant]	0.678	0.574	0.596	0.619	0.776	0.61
AUUCGCCUCGGUCAUCGGGUG [Fam2.2 aminoacylation ribozyme variant]	8.94	6.21	10.9	5.14	56.3	8.96
AUUCAGCUAGGUCAUCGGCUG [Fam2.2 aminoacylation ribozyme variant]	2.02	1.86	1.52	1.63	11.6	1.55
AUUCACUUCGGUCAUCGGGUG [Fam2.2 aminoacylation ribozyme variant]	7.68	5.73	10.1	5.12	55.8	7.48
AUUCACCGAGGUCUUCGGGUG [Fam2.2 aminoacylation ribozyme variant]	6.52	4.69	7.58	3.97	40.7	4.94
CUACUUCAAAGAAUCGGUCCG [Fam1A.1 aminoacylation ribozyme variant]	0.384	0.607	0.866	0.718	0.351	0.638
AUUCACCUCAGUCAUCGGGUG [Fam2.2 aminoacylation ribozyme variant]	6.63	4.58	8.93	4.75	56.6	7.34
AUUCACCUAUCUCAUCGGGUG [Fam2.2 aminoacylation ribozyme variant]	3.46	2.09	4.13	2.18	19.4	3.1
AUUCACCUAAGUAAUCGGGUG [Fam2.2 aminoacylation ribozyme variant]	4.33	2.15	5.7	2.81	24.9	4.37
CUUCUUCUAACAAUCGGUCUG [Fam1A.1 aminoacylation ribozyme variant]	0.581	0.729	0.571	0.732	0.727	0.623
AUUACCCUGCUCAUCGAGUGA [Fam2.1 aminoacylation ribozyme variant]	2.33	1.52	1.87	1.34	2.7	1.99
